Here are results for one molecule from patent publication US20110217695A1.

In the experiment the target is IGF1R (on MCF-7 cells) (UniProt P08069). Briefly: cell-based or functional assay.
UniProt P08069, sequence (P08069 31-1367 limits assumed): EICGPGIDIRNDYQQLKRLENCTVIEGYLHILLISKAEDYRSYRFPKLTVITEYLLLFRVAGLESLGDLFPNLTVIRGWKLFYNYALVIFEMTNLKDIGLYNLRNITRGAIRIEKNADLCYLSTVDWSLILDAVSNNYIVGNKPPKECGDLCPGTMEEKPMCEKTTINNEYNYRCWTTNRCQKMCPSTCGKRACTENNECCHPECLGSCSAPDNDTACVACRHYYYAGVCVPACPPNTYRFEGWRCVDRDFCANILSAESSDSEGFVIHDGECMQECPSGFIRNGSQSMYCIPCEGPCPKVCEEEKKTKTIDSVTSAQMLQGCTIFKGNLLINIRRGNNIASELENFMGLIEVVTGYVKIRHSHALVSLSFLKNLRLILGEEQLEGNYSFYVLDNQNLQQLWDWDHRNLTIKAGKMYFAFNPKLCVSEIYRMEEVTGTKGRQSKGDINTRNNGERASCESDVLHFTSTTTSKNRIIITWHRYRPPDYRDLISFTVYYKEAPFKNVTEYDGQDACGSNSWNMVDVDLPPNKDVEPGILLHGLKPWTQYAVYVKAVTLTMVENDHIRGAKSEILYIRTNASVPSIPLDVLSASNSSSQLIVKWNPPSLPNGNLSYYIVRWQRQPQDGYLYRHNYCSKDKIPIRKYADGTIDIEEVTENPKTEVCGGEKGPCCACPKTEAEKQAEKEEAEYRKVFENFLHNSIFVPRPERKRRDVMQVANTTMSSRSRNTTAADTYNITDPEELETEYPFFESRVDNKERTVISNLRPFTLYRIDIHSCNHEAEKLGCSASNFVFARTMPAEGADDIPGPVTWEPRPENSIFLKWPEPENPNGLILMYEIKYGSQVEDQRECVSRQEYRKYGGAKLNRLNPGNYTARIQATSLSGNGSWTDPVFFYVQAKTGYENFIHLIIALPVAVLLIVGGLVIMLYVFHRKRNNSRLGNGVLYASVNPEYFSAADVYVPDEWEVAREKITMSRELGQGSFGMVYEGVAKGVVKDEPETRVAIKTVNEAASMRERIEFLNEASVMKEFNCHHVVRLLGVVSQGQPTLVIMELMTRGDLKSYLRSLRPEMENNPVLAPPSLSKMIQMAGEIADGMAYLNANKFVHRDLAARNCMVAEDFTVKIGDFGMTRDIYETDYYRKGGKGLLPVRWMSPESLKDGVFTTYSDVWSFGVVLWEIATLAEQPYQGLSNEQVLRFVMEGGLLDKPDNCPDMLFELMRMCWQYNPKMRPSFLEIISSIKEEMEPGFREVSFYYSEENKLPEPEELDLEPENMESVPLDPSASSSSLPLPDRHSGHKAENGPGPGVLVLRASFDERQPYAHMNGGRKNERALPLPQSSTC

B1: 19D12 antibody (purified antibody obtained from 19D12 hybridoma) (antibody, from a related filing, V domains shown)
VH: EVQLVQSGGGLVHPGGSLRLSCAASGFTFSSFAMHWVRQAPGKGLEWISVIDTRGATYYADSVKGRFTISRDNAKNSLYLQMNSLRAEDMAVYYCARLGNFYYGMDVWGQGTTVTVSS
VL: EIVLTQVPDFQSVTPKEKVTITCRASQSIGSSLHWYQQKPDQSPKLLIKYASQSLSGVPSRFSGSGSGTDFTLTINSLEAEDAAAYYCHQSSRLPHTFGGGTKVEIKR
Consider B1, for which the % Inhibition, KIRA assay (IGF-I-stimulated receptor phosphorylation in MCF-7 cells), at 0.01 nM Ab (first row) was -3.26%; the % Inhibition, KIRA assay (IGF-I-stimulated receptor phosphorylation in MCF-7 cells), at 0.01 nM Ab (second row) is -0.34%; the % Inhibition, KIRA assay (IGF-I-stimulated receptor phosphorylation in MCF-7 cells), at 0.03 nM Ab is -3.18%; the % Inhibition, KIRA assay (IGF-I-stimulated receptor phosphorylation in MCF-7 cells), at 0.05 nM Ab stood at 0.87%. For the same molecule, the % Inhibition, KIRA assay (IGF-I-stimulated receptor phosphorylation in MCF-7 cells), at 0.10 nM Ab amounted to 3.82%; the % Inhibition, KIRA assay (IGF-I-stimulated receptor phosphorylation in MCF-7 cells), at 0.21 nM Ab was found to be 10.1%; the % Inhibition, KIRA assay (IGF-I-stimulated receptor phosphorylation in MCF-7 cells), at 0.42 nM Ab was 18%; the % Inhibition, KIRA assay (IGF-I-stimulated receptor phosphorylation in MCF-7 cells), at 0.83 nM Ab worked out at 39.4%. In addition, the % Inhibition, KIRA assay (IGF-I-stimulated receptor phosphorylation in MCF-7 cells), at 1.67 nM Ab was 40.5%; the % Inhibition, KIRA assay (IGF-I-stimulated receptor phosphorylation in MCF-7 cells), at 3.34 nM Ab turned out to be 54.6%; the % Inhibition, KIRA assay (IGF-I-stimulated receptor phosphorylation in MCF-7 cells), at 6.67 nM Ab is 69.6%.
